Data taken from patent US8372950B2, “IgG binding peptide” (Kagoshima University, priority 2006, dated 2013).

Assay: molecular sieve chromatography of acid-denatured MRA
Type: physicochemical
Settings: acid treated pH 2.7, 30° C., 10 minutes, purified on IMGpep-4K6R column, FIG. 15C
Protocol: First, 20 μl of 1 M glycine-HCl (pH 2.7) was added to 200 μl of humanized anti-human IL-6 receptor IgG antibody (MRA) (2000 μg/ml, PBS solution). The solution was incubated for 10 minutes at 30° C. and then 30 μl of 1 M Tris-HCl (pH 8.7) was added thereto for neutralization to prepare an acid-treated antibody sample. Also, a biotinylated IMGPep-4K6R peptide-immobilized column was prepared in a manner similar to that in Example 10. An acid-treated antibody sample was injected at a flow rate of 0.4 ml/min to the column and then gradient elution was carried out using from 20 mM phosphate buffered saline (PBS, pH 7.0) containing 0.1M NaCl to 0.1M glycine-HCl (pH 2.5) containing 0.1M NaCl. The thus eluted IgG was a purified acid-denatured humanized anti-human IL-6 receptor IgG antibody (MRA).
Subsequently, the purified acid-denatured MRA was subjected to molecular sieve chromatography using a HiLoad Sperdex 200 16/60 column (GE Healthcare). Similarly, untreated MRA, an acid-treated antibody sample, and a flow-through fraction (undenatured MRA) obtained via injection of an acid-treated antibody sample to a biotinylated IMGPep-4K6R peptide-immobilized column, were also separately subjected to molecular sieve chromatography using a HiLoad Sperdex 200 16/60 column (GE Healthcare). […]

## MRA: Humanized anti-human IL-6 receptor monoclonal IgG antibody, Chugai Pharmaceutical
  monomers in purified acid-denatured MRA: approximately 65%
